Source: publication PMC2213055 (The Journal of Experimental Medicine, 2005)

Key:
[1] = molecular target: MSH2–MSH6 heterodimer (human, UniProt P43246 1-934; P52701 1-1360); test: ELISA
[2] = molecular target: MSH2–MSH3 heterodimer (human, UniProt P43246 1-934; P20585 1-1137); test: ELISA
Chain of MSH2–MSH3 heterodimer (P43246 whole entry, chain 1 of 2): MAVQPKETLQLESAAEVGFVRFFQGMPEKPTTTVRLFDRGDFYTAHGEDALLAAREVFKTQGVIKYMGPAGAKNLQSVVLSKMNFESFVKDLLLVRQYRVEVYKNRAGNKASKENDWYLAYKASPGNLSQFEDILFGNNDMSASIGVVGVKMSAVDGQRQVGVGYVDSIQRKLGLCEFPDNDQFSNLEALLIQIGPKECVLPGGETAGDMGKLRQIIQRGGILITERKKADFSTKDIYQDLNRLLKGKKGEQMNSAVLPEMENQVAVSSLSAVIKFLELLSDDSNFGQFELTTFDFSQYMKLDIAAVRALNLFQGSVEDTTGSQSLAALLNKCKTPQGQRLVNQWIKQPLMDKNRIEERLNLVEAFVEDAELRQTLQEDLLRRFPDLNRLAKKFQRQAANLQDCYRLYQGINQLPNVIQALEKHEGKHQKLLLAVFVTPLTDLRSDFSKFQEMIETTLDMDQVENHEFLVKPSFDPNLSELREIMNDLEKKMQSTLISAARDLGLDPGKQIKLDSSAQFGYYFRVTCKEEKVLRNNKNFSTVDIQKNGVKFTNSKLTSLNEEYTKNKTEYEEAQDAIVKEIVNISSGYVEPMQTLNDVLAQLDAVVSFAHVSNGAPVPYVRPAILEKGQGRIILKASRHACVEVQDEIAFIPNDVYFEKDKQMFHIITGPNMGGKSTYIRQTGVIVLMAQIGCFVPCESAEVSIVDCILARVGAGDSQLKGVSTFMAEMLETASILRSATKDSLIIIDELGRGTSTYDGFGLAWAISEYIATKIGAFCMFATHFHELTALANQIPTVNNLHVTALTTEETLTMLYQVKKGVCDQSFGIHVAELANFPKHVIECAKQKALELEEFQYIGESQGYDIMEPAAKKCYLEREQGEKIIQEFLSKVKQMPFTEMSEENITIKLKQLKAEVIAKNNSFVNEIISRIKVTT
Chain of MSH2–MSH3 heterodimer (P20585 whole entry, chain 2 of 2): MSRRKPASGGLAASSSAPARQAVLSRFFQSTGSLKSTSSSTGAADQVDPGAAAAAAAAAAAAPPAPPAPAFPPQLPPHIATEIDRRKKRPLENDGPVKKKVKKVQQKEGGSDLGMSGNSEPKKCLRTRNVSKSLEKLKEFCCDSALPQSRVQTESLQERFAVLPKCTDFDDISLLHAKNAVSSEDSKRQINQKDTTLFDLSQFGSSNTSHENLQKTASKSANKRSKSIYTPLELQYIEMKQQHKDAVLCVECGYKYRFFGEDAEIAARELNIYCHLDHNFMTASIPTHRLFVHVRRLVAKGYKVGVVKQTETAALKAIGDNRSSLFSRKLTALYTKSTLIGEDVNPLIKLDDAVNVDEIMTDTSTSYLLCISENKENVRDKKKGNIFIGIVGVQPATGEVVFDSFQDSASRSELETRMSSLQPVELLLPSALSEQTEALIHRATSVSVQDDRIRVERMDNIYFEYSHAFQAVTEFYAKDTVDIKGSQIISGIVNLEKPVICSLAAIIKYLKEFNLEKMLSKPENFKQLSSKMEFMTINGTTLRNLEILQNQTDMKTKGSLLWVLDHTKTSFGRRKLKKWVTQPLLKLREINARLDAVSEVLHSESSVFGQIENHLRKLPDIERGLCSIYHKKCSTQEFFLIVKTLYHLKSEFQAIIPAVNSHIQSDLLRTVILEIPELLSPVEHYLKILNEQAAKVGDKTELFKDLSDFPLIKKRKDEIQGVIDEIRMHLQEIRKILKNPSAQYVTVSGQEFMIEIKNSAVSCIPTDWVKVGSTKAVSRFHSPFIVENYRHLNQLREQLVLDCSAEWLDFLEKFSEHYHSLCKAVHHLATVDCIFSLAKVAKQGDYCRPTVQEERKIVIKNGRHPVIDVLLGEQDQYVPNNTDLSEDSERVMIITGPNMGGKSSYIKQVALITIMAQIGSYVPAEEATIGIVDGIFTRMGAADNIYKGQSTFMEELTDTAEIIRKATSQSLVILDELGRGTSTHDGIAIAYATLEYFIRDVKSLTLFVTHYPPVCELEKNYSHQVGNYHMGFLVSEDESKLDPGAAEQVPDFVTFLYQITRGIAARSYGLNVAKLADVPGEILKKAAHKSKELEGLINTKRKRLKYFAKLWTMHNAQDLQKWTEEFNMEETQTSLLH

Chain of MSH2–MSH6 heterodimer (P43246 whole entry, chain 1 of 2): as the sequence (P43246 whole entry, chain 1 of 2) above
Chain of MSH2–MSH6 heterodimer (P52701 whole entry, chain 2 of 2): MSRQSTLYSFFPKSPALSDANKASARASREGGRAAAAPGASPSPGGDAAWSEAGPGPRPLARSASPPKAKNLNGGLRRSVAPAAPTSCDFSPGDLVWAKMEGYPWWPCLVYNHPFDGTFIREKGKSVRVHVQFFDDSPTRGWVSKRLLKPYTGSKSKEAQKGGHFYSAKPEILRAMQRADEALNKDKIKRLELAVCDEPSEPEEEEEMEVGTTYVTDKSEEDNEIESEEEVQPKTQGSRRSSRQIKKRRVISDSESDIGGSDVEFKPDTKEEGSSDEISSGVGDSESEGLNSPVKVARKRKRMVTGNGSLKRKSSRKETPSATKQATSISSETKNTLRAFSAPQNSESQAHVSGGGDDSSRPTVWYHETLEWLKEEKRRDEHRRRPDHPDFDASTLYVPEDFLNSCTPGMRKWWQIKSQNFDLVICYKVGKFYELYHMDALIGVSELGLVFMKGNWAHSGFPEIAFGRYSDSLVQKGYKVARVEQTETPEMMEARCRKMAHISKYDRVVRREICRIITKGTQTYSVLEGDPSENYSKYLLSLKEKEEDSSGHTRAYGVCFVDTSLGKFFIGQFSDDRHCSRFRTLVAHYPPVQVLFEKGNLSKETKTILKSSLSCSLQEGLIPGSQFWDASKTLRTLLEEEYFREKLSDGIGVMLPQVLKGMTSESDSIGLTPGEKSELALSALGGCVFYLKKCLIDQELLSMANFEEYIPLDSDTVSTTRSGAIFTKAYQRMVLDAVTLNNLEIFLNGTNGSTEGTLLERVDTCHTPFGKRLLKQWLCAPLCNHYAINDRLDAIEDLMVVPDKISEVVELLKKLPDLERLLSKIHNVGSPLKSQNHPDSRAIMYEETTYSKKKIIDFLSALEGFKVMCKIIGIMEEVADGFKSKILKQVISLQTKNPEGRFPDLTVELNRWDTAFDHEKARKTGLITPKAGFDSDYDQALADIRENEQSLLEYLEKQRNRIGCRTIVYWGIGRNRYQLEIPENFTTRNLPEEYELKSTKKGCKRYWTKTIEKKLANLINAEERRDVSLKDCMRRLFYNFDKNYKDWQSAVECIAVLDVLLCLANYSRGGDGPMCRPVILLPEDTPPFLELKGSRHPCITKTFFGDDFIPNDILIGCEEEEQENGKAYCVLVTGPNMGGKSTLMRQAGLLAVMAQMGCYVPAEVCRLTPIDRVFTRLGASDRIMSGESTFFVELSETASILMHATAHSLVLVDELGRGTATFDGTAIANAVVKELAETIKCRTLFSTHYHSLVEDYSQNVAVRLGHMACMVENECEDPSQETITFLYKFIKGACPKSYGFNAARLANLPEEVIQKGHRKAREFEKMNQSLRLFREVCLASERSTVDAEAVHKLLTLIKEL

B1: recombinant human DNA polymerase η, (His)6-tagged (enzyme, UniProt Q9Y253 1-713, looked up)
chain: MATGQDRVVALVDMDCFFVQVEQRQNPHLRNKPCAVVQYKSWKGGGIIAVSYEARAFGVTRSMWADDAKKLCPDLLLAQVRESRGKANLTKYREASVEVMEIMSRFAVIERASIDEAYVDLTSAVQERLQKLQGQPISADLLPSTYIEGLPQGPTTAEETVQKEGMRKQGLFQWLDSLQIDNLTSPDLQLTVGAVIVEEMRAAIERETGFQCSAGISHNKVLAKLACGLNKPNRQTLVSHGSVPQLFSQMPIRKIRSLGGKLGASVIEILGIEYMGELTQFTESQLQSHFGEKNGSWLYAMCRGIEHDPVKPRQLPKTIGCSKNFPGKTALATREQVQWWLLQLAQELEERLTKDRNDNDRVATQLVVSIRVQGDKRLSSLRRCCALTRYDAHKMSHDAFTVIKNCNTSGIQTEWSPPLTMLFLCATKFSASAPSSSTDITSFLSSDPSSLPKVPVTSSEAKTQGSGPAVTATKKATTSLESFFQKAAERQKVKEASLSSLTAPTQAPMSNSPSKPSLPFQTSQSTGTEPFFKQKSLLLKQKQLNNSSVSSPQQNPWSNCKALPNSLPTEYPGCVPVCEGVSKLEESSKATPAEMDLAHNSQSMHASSASKSVLEVTQKATPNPSLLAAEDQVPCEKCGSLVPVWDMPEHMDYHFALELQKSFLQPHSSNPQVVSAVSHQGKRNPKSPLACTNKRPRPEGMQTLESFFKPLTH
[1]
  Kd: 6.5 ± 0.8 nM
[2]
  Kd: 7.4 ± 1 nM
